Test results taken from patent US20140178561.

Legend:
Experiment in all cases: cell_activity
Conditions in all cases: pair value
[1] = system: VInv_T01 TALE-nuclease left monomer (synthetic construct)
[2] = system: VInv_T02 TALE-nuclease right monomer (synthetic construct)
[3] = system: VInv_T01 TALE-nuclease right monomer (synthetic construct)
[4] = system: VInv_T03 TALE-nuclease left monomer (synthetic construct)
[5] = system: VInv_T03 TALE-nuclease right monomer (synthetic construct)
[6] = system: VInv_T02 TALE-nuclease left monomer (synthetic construct)
[7] = S. tuberosum protoplasts, endogenous locus
[8] = yeast beta-galactosidase assay 37 C, 0.95 at 30 C
[9] = yeast beta-galactosidase assay 37 C, 0.89 at 30 C
[10] = S. tuberosum protoplasts, text p49 gives range up to 9.5%
[11] = yeast beta-galactosidase assay 37 C, 0.82 at 30 C

## TTCCTCCCGGATCAACC (double strand) [VInv_T1 left half-site]
[1]; [7]
  activity: 3.6 % NHEJ
[1]; [8]
  activity (relative to I-SceI): 0.94

## CTTCTTTCCGATCCTCA (double strand) [VInv_T2 right half-site]
[2]; [7]
  activity: 9.5 % NHEJ
[2]; [9]
  activity (relative to I-SceI): 0.92

## GAAGTCCCTTAAAATCA (double strand) [VInv_T1 right half-site]
[3]; [7]
  activity: 3.6 % NHEJ
[3]; [8]
  activity (relative to I-SceI): 0.94

## TAGCCTTCTTTCCGATC (double strand) [VInv_T3 left half-site]
[4]; [10]
  activity: 9.9 % NHEJ
[4]; [11]
  activity (relative to I-SceI): 0.96

## CCGGACTTGCAGAGTAA (double strand) [VInv_T3 right half-site]
[5]; [10]
  activity: 9.9 % NHEJ
[5]; [11]
  activity (relative to I-SceI): 0.96

## TTCCTCTCCTCTTTCCT (double strand) [VInv_T2 left half-site]
[6]; [7]
  activity: 9.5 % NHEJ
[6]; [9]
  activity (relative to I-SceI): 0.92
